Measurements: the RNAGym collection of RNA variant scans (doi:10.7554/elife.90254)

B1: OR4K15 (parent)
chain: GUUAACGGUCAUAGGCCAUGGAAACUAGGAGCACCAUUUCGCUGCCAGUGAAGAAAUGAACAAAGAAAAUCUGGGCCAGGCAGGCAUCAAAAGAAAUAGUCUUGCGCUCAACCAGAAAGUCUGUAAUCAUUUUAAGGGUA

Variants of: B1
Assay: self-cleavage, relative activity (ratio to wild type); higher = more cleavage; in vitro, sequencing; the parent is a self-cleaving ribozyme

| Variant | self-cleavage |
| --- | --- |
| C71U A89G | 0.52 |
| C77A U131C | 0.5 |
| U72A A118G | 0.12 |
| U72A U139C | 0.23 |
| U72A U139A | 0.24 |
| C71U A91G | 0.41 |
| U72C A116G | 0.07 |
| C77U G80A | 0.37 |
| G74U A82G | 0.28 |
| U72A A111G | 0.02 |
| U72C U103G | 0.01 |
| U72C U103C | 0.09 |
| U72C U103A | 0.08 |
| G73A A117U | 0.17 |
| G74C A89G | 0.07 |
| G80A A114G | 0.05 |
| A78U A89G | 0.27 |
| A78U A126U | 0.35 |
| A78U U133C | 0.37 |
| G75U A135G | 0.16 |
| G74A A78G | 0.21 |
| A78G A90C | 0.12 |
| A78G A90U | 0.31 |
| U72G A94G | 0.09 |

| Variant | self-cleavage |
| --- | --- |
| C77U A116G | 1.22 |
| C77U U108C | 0.03 |
| G79A A134G | 0.09 |
| A78U G119A | 0.39 |
| U72A A78G | 0.05 |
| C77U A89U | 2.73 |
| G75C A140G | 0.15 |
| U72C U120A | 0.13 |
| U72C U120C | 0.15 |
| G79A U87A | 0.11 |
| G79A U87C | 0.1 |
| G79U A94G | 0.43 |
| U72A A114C | 0.06 |
| U72A A114U | 1.94 |
| A78U A86G | 0.11 |
| U72C U122C | 0.03 |
| A78U A118G | 0.49 |
| A78C U100A | 0.11 |
| A78U A140G | 0.34 |
| U72G U120A | 0.19 |
| C76G U122C | 0.15 |
| A78U A90G | 0.32 |
| G79U U100C | 0.03 |
| A78C A90G | 0.16 |

| Variant | self-cleavage |
| --- | --- |
| C76A A111G | 0.02 |
| A78C A86U | 0.19 |
| A78U A116G | 0.14 |
| U72A U124C | 0.04 |
| G73A A86G | 0.05 |
| C76U A140G | 0.12 |
| A78G A86U | 0.1 |
| C76A G104A | 0.03 |
| U72A C105U | 0.04 |
| G74U | 0.05 |
| G74C | 0.19 |
| G74A | 0.12 |
| U72A U103C | 0.14 |
| G79A U130C | 0.15 |
| A78G A125G | 0.1 |
| A78G U97C | 0.38 |
| U72A A98G | 0.04 |
| A78G A117U | 0.1 |
| A78G A117C | 0.22 |
| A78U A129C | 0.14 |
| A78U A129G | 0.18 |
| C76U A117G | 0.22 |
| G79A A98U | 0.13 |
| G79A A98G | 0.03 |

| Variant | self-cleavage |
| --- | --- |
| G75A U100C | 0.12 |
| U72C G79A | 0.32 |
| G80A | 0.24 |
| G80U | 0.1 |
| G80C | 0.07 |
| G75U U102C | 0.12 |
| C76A A94G | 0.06 |
| G73A A129G | 0.07 |
| A78U G115U | 0.03 |
| U72C A96G | 0.05 |
| G75A A90G | 0.13 |
| U72A U133C | 0.29 |
| G79U G104U | 0.01 |
| U72C U130C | 0.16 |
| C76U U102C | 0.1 |
| U72C G93A | 0.32 |
| A78C A110G | 0.13 |
| A78C A98U | 0.58 |
| A78U A95G | 0.84 |
| A78U A95U | 0.2 |
| G74A U108A | 0.03 |
| G75A A92G | 0.08 |
| C71U A129G | 0.08 |
| A78U A91G | 0.11 |

| Variant | self-cleavage |
| --- | --- |
| U72C U97C | 0.1 |
| A78G U103G | 0 |
| A78G U103A | 0.08 |
| G75A C109U | 0.09 |
| G80A U130C | 0.08 |
| U72C U139C | 0.46 |
| U72C U139A | 0.24 |
| A78G G84A | 0.24 |
| G80C U132A | 0.1 |
| G80A C81A | 0.11 |
| A78U U122A | 0.31 |
| A78U U122C | 0.14 |
| U72C U102C | 0.36 |
| G79A C112G | 0.12 |
| A78C G79A | 0.16 |
| G74A U87C | 0.19 |
| A78U C105U | 0.03 |
| A78G U127A | 0.31 |
| G75A A114G | 0.04 |
| G75A A114U | 0.02 |
| G74A G115U | 0.03 |
| C71U C105U | 0.07 |
| U72G A135C | 0.33 |
| G80U U139A | 0.09 |

| Variant | self-cleavage |
| --- | --- |
| A78G U102A | 0.11 |
| G80C A96U | 0.09 |
| G80A U108A | 0.02 |
| C76G A82U | 0.22 |
| G73A A78G | 0.21 |
| A78G C109A | 0.05 |
| G74U U132A | 0.3 |
| G74U U132C | 0.18 |
| G74A C81A | 0.19 |
| A78G A126G | 0.15 |
| C71U U87A | 0.61 |
| A78U | 0.36 |
| A78G | 0.22 |
| A78C | 0.18 |
| U72G U103C | 0.07 |
| U72C U127C | 0.07 |
| G74U C113U | 0.02 |
| G80U G123A | 0.14 |
| G75A A134G | 0.09 |
| A78U U131A | 0.18 |
| G73U U122C | 0.1 |
| G75C U103A | 0.01 |
| G74U U120C | 0.08 |
| U72G G74A | 0.18 |

| Variant | self-cleavage |
| --- | --- |
| C76A A110G | 0.05 |
| U72A A134U | 0.27 |
| U72G A111U | 0.04 |
| U72C A135U | 0.28 |
| G80C U103C | 0.03 |
| G74C U139C | 0.15 |
| U72G U132A | 0.44 |
| A78G A110G | 0.11 |
| A78G A110C | 0.3 |
| C71U U102C | 0.66 |
| G73A A118U | 0.04 |
| U72A A116G | 0.04 |
| U72A A129U | 0.23 |
| U72A A129G | 0.08 |
| U72C A82U | 0.08 |
| U72C A82G | 0.3 |
| C81A | 0.25 |
| G74U G104A | 0.02 |
| A78G U100G | 0.35 |
| A78G U133C | 0.27 |
| G80U U87C | 0.22 |
| G80U U120C | 0.08 |
| A78U C88U | 0.42 |
